Measured values reported in publication doi:10.1101/2023.02.03.526715 (bioRxiv, 2023).

Target: recombinant human cardiac troponin I tagged with GST (human, UniProt P19429 1-210)
Assay: ELISA

Chain of recombinant human cardiac troponin I tagged with GST (P19429 whole entry): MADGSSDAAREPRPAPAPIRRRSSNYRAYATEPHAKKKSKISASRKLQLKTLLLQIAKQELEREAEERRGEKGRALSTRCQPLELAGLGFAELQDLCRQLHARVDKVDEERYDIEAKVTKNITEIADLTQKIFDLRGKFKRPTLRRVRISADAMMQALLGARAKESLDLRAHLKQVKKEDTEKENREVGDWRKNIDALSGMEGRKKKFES

## AGRKLALKTI [P888, ten amino acid peptide corresponding to ATP synthase subunit d residues 2-11]
  binding result: binds
